Source: US20220259318A1 (Hoffmann-La Roche, published 2022)

Tests used:
human CD3 = molecular target: T1, human CD3 (human, UniProt P07766 23-207); assay: flow cytometry on Jurkat-NFAT cells; paragraph 550 says these values were falsely calculated by a factor of 10 (too low)
T1 construct: Expressed on Jurkat-NFAT reporter cells as part of the TCR/CD3 complex; also called hCD3; CD3 epsilon
Experimental: (§1) To measure the binding to GPRC5D, we performed a flow cytometry-based binding assay on reported multiple myeloma cell lines (Lombardi et al., Molecular characterization of human multiple myeloma cell lines by integrative genomics: insights into the biology of the disease; Genes Chromosomes Cancer. 2007 March; 46(3):226-38). The cell line NCI-H929 (ATCC® CRL-9068) was cultured in RPMI 1640 with Glutamax medium (Gibco) supplemented with 10% FBS, 1× Penicillin/Streptomycin (Gibco), 1× Sodium Pyruvate (Gibco) and 50 μM beta-Mercaptoethanol (Gibco). Jurkat-NFAT reporter cells (a CD3-expressing human acute lymphatic leukemia reporter cell line with a NFAT promoter, GloResponse Jurkat NFAT-RE-luc2P, Promega #CS176501) were cultured in RPMI 1640, containing 2 g/l Glucose, 2 g/l NaHCO₃, 10% FCS, 25 mM HEPES, 2 mM L-Glutamine, 1×NEAA, 1× Sodium-pyruvate and 200 μg/ml Hygromycin B.
(§2) Flow cytometry acquisition was performed on a custom-designed BD Biosciences Fortessa and analyzed using BD Diva. EC50 values were calculated, using GraphPad Prism software.

human GPRC5D [1] = molecular target: T2, human GPRC5D (human, UniProt Q9NZD1 1-345); assay: cell-based or functional assay
human GPRC5D [2] = molecular target: T2, human GPRC5D; assay: flow cytometry on NCI-H929 cells; paragraph 550 says these values were falsely calculated by a factor of 10 (too low)
Experimental: as §1, §2

human GPRC5D [3] = molecular target: T2, human GPRC5D; assay: cell-based or functional assay; remark: listed apart in the source
human GPRC5D [4] = molecular target: T2, human GPRC5D; assay: cell-based or functional assay; remark: listed apart in the source

T1 sequence (P07766 23-207 limits assumed): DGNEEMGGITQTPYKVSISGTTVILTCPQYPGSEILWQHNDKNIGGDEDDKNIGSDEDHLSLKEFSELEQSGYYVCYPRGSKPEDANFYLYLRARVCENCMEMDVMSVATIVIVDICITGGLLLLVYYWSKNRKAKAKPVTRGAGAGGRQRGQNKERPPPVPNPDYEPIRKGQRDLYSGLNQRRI
T2 sequence (Q9NZD1 whole entry): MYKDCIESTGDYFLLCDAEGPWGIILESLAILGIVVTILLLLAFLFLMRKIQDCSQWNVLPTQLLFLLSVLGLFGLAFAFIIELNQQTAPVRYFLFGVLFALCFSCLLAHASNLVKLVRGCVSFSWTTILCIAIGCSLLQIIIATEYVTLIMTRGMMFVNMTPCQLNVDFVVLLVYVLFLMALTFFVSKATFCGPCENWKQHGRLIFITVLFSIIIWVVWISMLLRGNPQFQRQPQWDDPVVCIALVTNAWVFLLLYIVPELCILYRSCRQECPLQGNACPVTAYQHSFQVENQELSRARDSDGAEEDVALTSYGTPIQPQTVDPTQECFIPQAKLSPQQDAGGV

Row | Binder | EC50 (human CD3) [nM] | AUC, activation of Jurkat-NFAT reporter cells in presence of RPMI-8226 cells (human GPRC5D [1]) | EC50 (pM), activation of Jurkat-NFAT reporter cells in presence of RPMI-8226 cells (human GPRC5D [1]) [pM] | EC50 (human GPRC5D [2]) [nM] | EC50 of anti-GPRC5D-TCB mediated killing, AMO-1 (human GPRC5D [3]) [pM] | EC50 of anti-GPRC5D-TCB mediated killing, L363 (human GPRC5D [3]) [pM] | EC50 of anti-GPRC5D-TCB mediated killing, NCI-H929 (human GPRC5D [3]) [pM] | EC50 of anti-GPRC5D-TCB mediated killing, RPMI-8226 (human GPRC5D [3]) [nM] | EC50 in vitro killing assay, AMO-1 (human GPRC5D [4]) [pM] | EC50 in vitro killing assay, EJM (human GPRC5D [4]) [pM] | EC50 in vitro killing assay, L363 (human GPRC5D [4]) [pM] | EC50 in vitro killing assay, MOLP-2 (human GPRC5D [4]) [pM] | EC50 in vitro killing assay, NCI-H929 (human GPRC5D [4]) [pM] | EC50 in vitro killing assay, OPM-2 (human GPRC5D [4]) [pM] | EC50 in vitro killing assay, RPMI (human GPRC5D [4]) [pM]
1 | 5E11-TCB (bispecific antibody, human IgG1, kappa, L234A L235A, 2+1 anti-GPRC5D/anti-CD3 T cell bispecific: LC1 (GPRC5D), LC2 (CD3 crossed VH-CL), HC hole, HC knob; also called 5E11p-CH2527) light 1: DIVLTQSPALAVSPGQRATISCRASQSVSISGINLMNWYQQKPGQQPKLLIYHASILASGIPTRFSGSGSGTDFTLTIDPVQADDIATYYCQQTRESPLTFGSGTNLEIKRTVAAPSVFIFPPSDRKLKSGTASVVCLLNNFYPREAKVQWKVDNALQSGNSQESVTEQDSKDSTYSLSSTLTLSKADYEKHKVYACEVTHQGLSSPVTKSFNRGEC light 2: EVQLLESGGGLVQPGGSLRLSCAASGFTFSTYAMNWVRQAPGKGLEWVSRIRSKYNNYATYYADSVKGRFTISRDDSKNTLYLQMNSLRAEDTAVYYCVRHGNFGNSYVSWFAYWGQGTLVTVSSASVAAPSVFIFPPSDEQLKSGTASVVCLLNNFYPREAKVQWKVDNALQSGNSQESVTEQDSKDSTYSLSSTLTLSKADYEKHKVYACEVTHQGLSSPVTKSFNRGEC heavy 1: ELQLEQSGGGLVQPGGSLTLSCAASGFTFSKYAMAWVRQAPTKGLEWVASISTGGVNTYYRDSVKARFTISRDNAKNTQYLQMDSLRSEDTATYYCATHTGDYFDYWGQGVMVTVSSASTKGPSVFPLAPSSKSTSGGTAALGCLVEDYFPEPVTVSWNSGALTSGVHTFPAVLQSSGLYSLSSVVTVPSSSLGTQTYICNVNHKPSNTKVDEKVEPKSCDKTHTCPPCPAPEAAGGPSVFLFPPKPKDTLMISRTPEVTCVVVDVSHEDPEVKFNWYVDGVEVHNAKTKPREEQYNSTYRVVSVLTVLHQDWLNGKEYKCKVSNKALGAPIEKTISKAKGQPREPQVCTLPPSRDELTKNQVSLSCAVKGFYPSDIAVEWESNGQPENNYKTTPPVLDSDGSFFLVSKLTVDKSRWQQGNVFSCSVMHEALHNHYTQKSLSLSPGK heavy 2: not shown | 3.67 | 265000 | 157 | 3.36 | 14 | 12 | 7 | 0.024 | 8 | 11 | 17 | 18 | 7 | 2 | 64
2 | 5F11(VH1b + VL2a)-C122-TCB (P1AE6623) (bispecific antibody, human IgG1, kappa, L234A L235A, 2+1 TCB: LC1 (anti-GPRC5D), LC2 (anti-CD3 crossed), HC1 Fc hole, HC2 Fc knob) light 1: DIVMTQSPLSLPVTPGEPASISCRSSKSLLHSNGITYVYWYLQKPGQSPQLLIYRMSNRASGVPDRFSGSGSGTDFTLKISRVEAEDVGVYHCGQLLENPYTFGQGTKLEIKRTVAAPSVFIFPPSDRKLKSGTASVVCLLNNFYPREAKVQWKVDNALQSGNSQESVTEQDSKDSTYSLSSTLTLSKADYEKHKVYACEVTHQGLSSPVTKSFNRGEC light 2: EVQLLESGGGLVQPGGSLRLSCAASGFQFSSYAMNWVRQAPGKGLEWVSRIRSKYNNYATYYADSVKGRFTISRDDSKNTLYLQMNSLRAEDTAVYYCVRHTTFPSSYVSYYGYWGQGTLVTVSSASVAAPSVFIFPPSDEQLKSGTASVVCLLNNFYPREAKVQWKVDNALQSGNSQESVTEQDSKDSTYSLSSTLTLSKADYEKHKVYACEVTHQGLSSPVTKSFNRGEC heavy 1: EVQLVESGGGVVQPGRSLRLSCAASGFSFSNYGMAWVRQAPGKGLEWVASISTGGGNTYYRDSVKGRFTISRDNAKNTLYLQMNSLRAEDTAVYYCTRHDRGGLYWGQGTMVTVSSASTKGPSVFPLAPSSKSTSGGTAALGCLVEDYFPEPVTVSWNSGALTSGVHTFPAVLQSSGLYSLSSVVTVPSSSLGTQTYICNVNHKPSNTKVDEKVEPKSCDKTHTCPPCPAPEAAGGPSVFLFPPKPKDTLMISRTPEVTCVVVDVSHEDPEVKFNWYVDGVEVHNAKTKPREEQYNSTYRVVSVLTVLHQDWLNGKEYKCKVSNKALGAPIEKTISKAKGQPREPQVCTLPPSRDELTKNQVSLSCAVKGFYPSDIAVEWESNGQPENNYKTTPPVLDSDGSFFLVSKLTVDKSRWQQGNVFSCSVMHEALHNHYTQKSLSLSPGK heavy 2: not shown | – | 778000 | 8.9 | 0.36 | – | – | – | – | – | – | – | – | – | – | –
3 | 5F11-TCB (bispecific antibody, human IgG1, kappa, L234A L235A, 2+1 anti-GPRC5D/anti-CD3 T cell bispecific: LC1 (GPRC5D), LC2 (CD3 crossed VH-CL), HC hole, HC knob; also called 5F11p-CH2527) light 1: DIVMTQAPLSVSVTPGESASISCRSSKSLLHSNGITYVYWYFQKPGKSPQVLIYRMSNLASGVPDRFSGSGSETDFTLKISRVEAEDVGIYHCGQLLENPYTFGAGTELELKRTVAAPSVFIFPPSDRKLKSGTASVVCLLNNFYPREAKVQWKVDNALQSGNSQESVTEQDSKDSTYSLSSTLTLSKADYEKHKVYACEVTHQGLSSPVTKSFNRGEC light 2: EVQLLESGGGLVQPGGSLRLSCAASGFTFSTYAMNWVRQAPGKGLEWVSRIRSKYNNYATYYADSVKGRFTISRDDSKNTLYLQMNSLRAEDTAVYYCVRHGNFGNSYVSWFAYWGQGTLVTVSSASVAAPSVFIFPPSDEQLKSGTASVVCLLNNFYPREAKVQWKVDNALQSGNSQESVTEQDSKDSTYSLSSTLTLSKADYEKHKVYACEVTHQGLSSPVTKSFNRGEC heavy 1: EVQLVESGGGLVQPGRSLKLSCAASGFSFSNYGMAWVRQAATKGLEWVASISTGGGNTYYRDSVKGRFIVSRDNAKNTQYLQMDSLRSEDTATYYCTRHDRGGLYWGQGVMVTVSSASTKGPSVFPLAPSSKSTSGGTAALGCLVEDYFPEPVTVSWNSGALTSGVHTFPAVLQSSGLYSLSSVVTVPSSSLGTQTYICNVNHKPSNTKVDEKVEPKSCDKTHTCPPCPAPEAAGGPSVFLFPPKPKDTLMISRTPEVTCVVVDVSHEDPEVKFNWYVDGVEVHNAKTKPREEQYNSTYRVVSVLTVLHQDWLNGKEYKCKVSNKALGAPIEKTISKAKGQPREPQVCTLPPSRDELTKNQVSLSCAVKGFYPSDIAVEWESNGQPENNYKTTPPVLDSDGSFFLVSKLTVDKSRWQQGNVFSCSVMHEALHNHYTQKSLSLSPGK heavy 2: not shown | 2.31 | 393000 | 14 | 0.18 | 3 | 1 | 1 | 0.002 | 6 | 3 | 3 | 1 | 4 | 1 | 6
4 | 5E11(VH1d + VL2a)-C122-TCB (P1AE6626) (bispecific antibody, human IgG1, kappa, L234A L235A, 2+1 TCB: LC1 (anti-GPRC5D), LC2 (anti-CD3 crossed), HC1 Fc hole, HC2 Fc knob) light 1: EIVLTQSPGTLSLSPGERATLSCRASQSVSISGINLMNWYQQKPGQQPRLLIYHASILASGIPDRFSGSGSGTDFTLTISRLEPEDFAVYYCQQTRESPLTFGQGTRLEIKRTVAAPSVFIFPPSDRKLKSGTASVVCLLNNFYPREAKVQWKVDNALQSGNSQESVTEQDSKDSTYSLSSTLTLSKADYEKHKVYACEVTHQGLSSPVTKSFNRGEC light 2: EVQLLESGGGLVQPGGSLRLSCAASGFQFSSYAMNWVRQAPGKGLEWVSRIRSKYNNYATYYADSVKGRFTISRDDSKNTLYLQMNSLRAEDTAVYYCVRHTTFPSSYVSYYGYWGQGTLVTVSSASVAAPSVFIFPPSDEQLKSGTASVVCLLNNFYPREAKVQWKVDNALQSGNSQESVTEQDSKDSTYSLSSTLTLSKADYEKHKVYACEVTHQGLSSPVTKSFNRGEC heavy 1: ELQLLESGGGLVQPGGSLRLSCAASGFTFSKYAMAWVRQAPGKGLEWVASISTGGVNTYYADSVKGRFTISRDNAKNTLYLQMNSLRAEDTAVYYCATHTGDYFDYWGQGTMVTVSSASTKGPSVFPLAPSSKSTSGGTAALGCLVEDYFPEPVTVSWNSGALTSGVHTFPAVLQSSGLYSLSSVVTVPSSSLGTQTYICNVNHKPSNTKVDEKVEPKSCDKTHTCPPCPAPEAAGGPSVFLFPPKPKDTLMISRTPEVTCVVVDVSHEDPEVKFNWYVDGVEVHNAKTKPREEQYNSTYRVVSVLTVLHQDWLNGKEYKCKVSNKALGAPIEKTISKAKGQPREPQVCTLPPSRDELTKNQVSLSCAVKGFYPSDIAVEWESNGQPENNYKTTPPVLDSDGSFFLVSKLTVDKSRWQQGNVFSCSVMHEALHNHYTQKSLSLSPGK heavy 2: not shown | 7.8 | 582000 | 49.7 | 0.85 | – | – | – | – | – | – | – | – | – | – | –
